This note sets out measurements from publication PMC3035177 (Chemistry & biology, 2005).

The target of this test is T1, DnaG primase (purified) (B. stearothermophilus, UniProt Q9X4D0 1-597).
T1 sequence (looked up): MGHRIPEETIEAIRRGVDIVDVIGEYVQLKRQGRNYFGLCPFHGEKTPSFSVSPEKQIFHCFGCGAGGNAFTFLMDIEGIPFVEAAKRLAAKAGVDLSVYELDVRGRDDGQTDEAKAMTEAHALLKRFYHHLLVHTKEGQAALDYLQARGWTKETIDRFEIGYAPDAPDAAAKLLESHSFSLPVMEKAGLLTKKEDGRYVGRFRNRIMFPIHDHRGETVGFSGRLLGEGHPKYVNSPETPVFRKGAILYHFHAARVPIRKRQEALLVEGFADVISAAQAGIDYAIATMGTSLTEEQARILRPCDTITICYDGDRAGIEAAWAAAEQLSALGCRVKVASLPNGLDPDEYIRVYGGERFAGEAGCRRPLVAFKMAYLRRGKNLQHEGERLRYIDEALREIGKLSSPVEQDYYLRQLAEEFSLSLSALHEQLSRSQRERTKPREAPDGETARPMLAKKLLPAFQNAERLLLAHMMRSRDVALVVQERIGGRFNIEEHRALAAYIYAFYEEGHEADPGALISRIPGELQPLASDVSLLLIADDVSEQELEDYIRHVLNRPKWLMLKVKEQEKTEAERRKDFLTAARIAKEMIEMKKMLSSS
The test can be described thus: SEC. A general note: Size exclusion chromatography separates by hydrodynamic size, large species first.

B1: DnaB helicase (purified) (enzyme, B. stearothermophilus, UniProt Q9X4C9 1-454, looked up)
chain: MSELFSERIPPQSIEAEQAVLGAVFLDPAALVPASEILIPEDFYRAAHQKIFHAMLRVADRGEPVDLVTVTAELAASEQLEEIGGVSYLSELADAVPTAANVEYYARIVEEKSVLRRLIRTATSIAQDGYTREDEIDVLLDEADRKIMEVSQRKHSGAFKNIKDILVQTYDNIEMLHNRDGEITGIPTGFTELDRMTSGFQRSDLIIVAARPSVGKTAFALNIAQNVATKTNENVAIFSLEMSAQQLVMRMLCAEGNINAQNLRTGKLTPEDWGKLTMAMGSLSNAGIYIDDTPSIRVSDIRAKCRRLKQESGLGMIVIDYLQLIQGSGRSKENRQQEVSEISRSLKALARELEVPVIALSQLSRSVEQRQDKRPMMSDIRESGSIEQDADIVAFLYRDDYYNKDSENKNIIEIIIAKQRNGPVGTVQLAFIKEYNKFVNLERRFDEAQIPPGA
As for B1, the binding result was “binds”.
